Measurements taken from patent US20220218785A1 (ALPINE IMMUNE SCIENCES, published 2022).

T1: human ICOS (human, UniProt Q9Y6W8 21-199)
T1 construct: whole, on cells
T1 sequence (looked up): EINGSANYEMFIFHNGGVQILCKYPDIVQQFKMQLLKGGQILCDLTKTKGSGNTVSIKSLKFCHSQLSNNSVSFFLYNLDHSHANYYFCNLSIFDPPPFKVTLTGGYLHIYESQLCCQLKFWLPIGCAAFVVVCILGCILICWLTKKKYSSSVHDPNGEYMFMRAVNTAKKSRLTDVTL

B1: variant ICOSL ECD-Fc N52H/N57Y/Q100R/F172S, AAA linker, Fc C220S/E233P/L234V/L235A/G236del/S267K (SEQ ID NO: 44) (Fc fusion)
chain: DTQEKEVRAMVGSDVELSCACPEGSRFDLNDVYVYWQTSESKTVVTYHIPQHSSLEYVDSRYRNRALMSPAGMLRGDFSLRLFNVTPQDEQKFHCLVLSRSLGFQEVLSVEVTLHVAANFSVPVVSAPHSPSQDELTFTCTSINGYPRPNVYWINKTDNSLLDQALQNDTVSLNMRGLYDVVSVLRIARTPSVNIGCCIENVLLQQNLTVGSQTGNDIGERDKITENPVSTGEKNAATAAAEPKSSDKTHTCPPCPAPPVAGPSVFLFPPKPKDTLMISRTPEVTCVVVDVKHEDPEVKFNWYVDGVEVHNAKTKPREEQYNSTYRVVSVLTVLHQDWLNGKEYKCKVSNKALPAPIEKTISKAKGQPREPQVYTLPPSREEMTKNQVSLTCLVKGFYPSDIAVEWESNGQPENNYKTTPPVLDSDGSFFLYSKLTVDKSRWQQGNVFSCSVMHEALHNHYTQKSLSLSPGK
notes: Made in 293 cells; Fc or allotypes thereof
B2: variant ICOSL ECD-Fc N52H/N57Y/Q100P, AAA linker, Fc C220S/E233P/L234V/L235A/G236del/S267K (SEQ ID NO: 44) (Fc fusion)
chain: DTQEKEVRAMVGSDVELSCACPEGSRFDLNDVYVYWQTSESKTVVTYHIPQHSSLEYVDSRYRNRALMSPAGMLRGDFSLRLFNVTPQDEQKFHCLVLSPSLGFQEVLSVEVTLHVAANFSVPVVSAPHSPSQDELTFTCTSINGYPRPNVYWINKTDNSLLDQALQNDTVFLNMRGLYDVVSVLRIARTPSVNIGCCIENVLLQQNLTVGSQTGNDIGERDKITENPVSTGEKNAATAAAEPKSSDKTHTCPPCPAPPVAGPSVFLFPPKPKDTLMISRTPEVTCVVVDVKHEDPEVKFNWYVDGVEVHNAKTKPREEQYNSTYRVVSVLTVLHQDWLNGKEYKCKVSNKALPAPIEKTISKAKGQPREPQVYTLPPSREEMTKNQVSLTCLVKGFYPSDIAVEWESNGQPENNYKTTPPVLDSDGSFFLYSKLTVDKSRWQQGNVFSCSVMHEALHNHYTQKSLSLSPGK
notes: as for B1
B3: ICOSL ECD Truncation #4 with N52H/N57Y/Q100R/F172S and E200G, Fc fusion (Fc fusion)
chain: DTQEKEVRAMVGSDVELSCACPEGSRFDLNDVYVYWQTSESKTVVTYHIPQHSSLEYVDSRYRNRALMSPAGMLRGDFSLRLFNVTPQDEQKFHCLVLSRSLGFQEVLSVEVTLHVAANFSVPVVSAPHSPSQDELTFTCTSINGYPRPNVYWINKTDNSLLDQALQNDTVSLNMRGLYDVVSVLRIARTPSVNIGCCIGNVLLQQNGGGGSGGGGSEPKSSDKTHTCPPCPAPEAEGAPSVFLFPPKPKDTLMISRTPEVTCVVVDVSHEDPEVKFNWYVDGVEVHNAKTKPREEQYNSTYRVVSVLTVLHQDWLNGKEYKCKVSNKALPAPIEKTISKAKGQPREPQVYTLPPSREEMTKNQVSLTCLVKGFYPSDIAVEWESNGQPENNYKTTPPVLDSDGSFFLYSKLTVDKSRWQQGNVFSCSVMHEALHNHYTQKSLSLSPG
notes: Made in CHO cells; E200G is an additional mutation found later in the clone
B4: ICOSL ECD Truncation #6 with N52H/N57Y/Q100R/C198R (Fc fusion, not shown: a dimerising Fc or GST)
chain: DTQEKEVRAMVGSDVELSCACPEGSRFDLNDVYVYWQTSESKTVVTYHIPQHSSLEYVDSRYRNRALMSPAGMLRGDFSLRLFNVTPQDEQKFHCLVLSRSLGFQEVLSVEVTLHVAANFSVPVVSAPHSPSQDELTFTCTSINGYPRPNVYWINKTDNSLLDQALQNDTVFLNMRGLYDVVSVLRIARTPSVNIGCRIENVLL
notes: Made in CHO cells
B5: ICOSL ECD Truncation #8 with N207G/L208G and N52H/N57Y/Q100R/F172S, Fc fusion (Fc fusion)
chain: DTQEKEVRAMVGSDVELSCACPEGSRFDLNDVYVYWQTSESKTVVTYHIPQHSSLEYVDSRYRNRALMSPAGMLRGDFSLRLFNVTPQDEQKFHCLVLSRSLGFQEVLSVEVTLHVAANFSVPVVSAPHSPSQDELTFTCTSINGYPRPNVYWINKTDNSLLDQALQNDTVSLNMRGLYDVVSVLRIARTPSVNIGCCIENVLLQQGGTGGGGSGGGGSEPKSSDKTHTCPPCPAPEAEGAPSVFLFPPKPKDTLMISRTPEVTCVVVDVSHEDPEVKFNWYVDGVEVHNAKTKPREEQYNSTYRVVSVLTVLHQDWLNGKEYKCKVSNKALPAPIEKTISKAKGQPREPQVYTLPPSREEMTKNQVSLTCLVKGFYPSDIAVEWESNGQPENNYKTTPPVLDSDGSFFLYSKLTVDKSRWQQGNVFSCSVMHEALHNHYTQKSLSLSPG
notes: Made in CHO cells
B6: ICOSL ECD Truncation #7 with N52H/N57Y/Q100R/C198R and E90K/E111G (Fc fusion, not shown: a dimerising Fc or GST)
chain: DTQEKEVRAMVGSDVELSCACPEGSRFDLNDVYVYWQTSESKTVVTYHIPQHSSLEYVDSRYRNRALMSPAGMLRGDFSLRLFNVTPQDKQKFHCLVLSRSLGFQEVLSVGVTLHVAANFSVPVVSAPHSPSQDELTFTCTSINGYPRPNVYWINKTDNSLLDQALQNDTVFLNMRGLYDVVSVLRIARTPSVNIGCRIEN
notes: Made in CHO cells
B7: ICOSL ECD with N52H/N57Y/Q100R/C198R (Table 18) (Fc fusion, not shown: a dimerising Fc or GST)
chain: DTQEKEVRAMVGSDVELSCACPEGSRFDLNDVYVYWQTSESKTVVTYHIPQHSSLEYVDSRYRNRALMSPAGMLRGDFSLRLFNVTPQDEQKFHCLVLSRSLGFQEVLSVEVTLHVAANFSVPVVSAPHSPSQDELTFTCTSINGYPRPNVYWINKTDNSLLDQALQNDTVFLNMRGLYDVVSVLRIARTPSVNIGCRIENVLLQQNLTVGSQTGNDIGERDKITENPVSTGEKNAAT
notes: Made in CHO cells; May be the same construct as m37
B8: ICOSL ECD Truncation #7 with N52H/N57Y/Q100R/F172S and F83S, Fc fusion (Fc fusion)
chain: DTQEKEVRAMVGSDVELSCACPEGSRFDLNDVYVYWQTSESKTVVTYHIPQHSSLEYVDSRYRNRALMSPAGMLRGDFSLRLSNVTPQDEQKFHCLVLSRSLGFQEVLSVEVTLHVAANFSVPVVSAPHSPSQDELTFTCTSINGYPRPNVYWINKTDNSLLDQALQNDTVSLNMRGLYDVVSVLRIARTPSVNIGCCIENGGGGSGGGGSEPKSSDKTHTCPPCPAPEAEGAPSVFLFPPKPKDTLMISRTPEVTCVVVDVSHEDPEVKFNWYVDGVEVHNAKTKPREEQYNSTYRVVSVLTVLHQDWLNGKEYKCKVSNKALPAPIEKTISKAKGQPREPQVYTLPPSREEMTKNQVSLTCLVKGFYPSDIAVEWESNGQPENNYKTTPPVLDSDGSFFLYSKLTVDKSRWQQGNVFSCSVMHEALHNHYTQKSLSLSPG
notes: Made in CHO cells; F83S is an additional mutation found later in the clone
B9: ICOSL ECD Truncation #5 with N52H/N57Y/Q100R/C198R (Fc fusion, not shown: a dimerising Fc or GST)
chain: DTQEKEVRAMVGSDVELSCACPEGSRFDLNDVYVYWQTSESKTVVTYHIPQHSSLEYVDSRYRNRALMSPAGMLRGDFSLRLFNVTPQDEQKFHCLVLSRSLGFQEVLSVEVTLHVAANFSVPVVSAPHSPSQDELTFTCTSINGYPRPNVYWINKTDNSLLDQALQNDTVFLNMRGLYDVVSVLRIARTPSVNIGCRIENVLLQQ
notes: Made in CHO cells
B10: ICOSL ECD Truncation #6 with N52H/N57Y/Q100R/F172S, Fc fusion (Fc fusion)
chain: DTQEKEVRAMVGSDVELSCACPEGSRFDLNDVYVYWQTSESKTVVTYHIPQHSSLEYVDSRYRNRALMSPAGMLRGDFSLRLFNVTPQDEQKFHCLVLSRSLGFQEVLSVEVTLHVAANFSVPVVSAPHSPSQDELTFTCTSINGYPRPNVYWINKTDNSLLDQALQNDTVSLNMRGLYDVVSVLRIARTPSVNIGCCIENVLLGGGGSGGGGSEPKSSDKTHTCPPCPAPEAEGAPSVFLFPPKPKDTLMISRTPEVTCVVVDVSHEDPEVKFNWYVDGVEVHNAKTKPREEQYNSTYRVVSVLTVLHQDWLNGKEYKCKVSNKALPAPIEKTISKAKGQPREPQVYTLPPSREEMTKNQVSLTCLVKGFYPSDIAVEWESNGQPENNYKTTPPVLDSDGSFFLYSKLTVDKSRWQQGNVFSCSVMHEALHNHYTQKSLSLSPG
notes: Made in CHO cells
B11: ICOSL IgV with N52H/N57Y/Q100R and H48R/S54P, Fc fusion (Fc fusion)
chain: DTQEKEVRAMVGSDVELSCACPEGSRFDLNDVYVYWQTSESKTVVTYRIPQHSPLEYVDSRYRNRALMSPAGMLRGDFSLRLFNVTPQDEQKFHCLVLSRSLGFQEVLSVEVTLHVAANFSVGGGGSGGGGSEPKSSDKTHTCPPCPAPEAEGAPSVFLFPPKPKDTLMISRTPEVTCVVVDVSHEDPEVKFNWYVDGVEVHNAKTKPREEQYNSTYRVVSVLTVLHQDWLNGKEYKCKVSNKALPAPIEKTISKAKGQPREPQVYTLPPSREEMTKNQVSLTCLVKGFYPSDIAVEWESNGQPENNYKTTPPVLDSDGSFFLYSKLTVDKSRWQQGNVFSCSVMHEALHNHYTQKSLSLSPG
notes: Made in CHO cells. '554P' is read as S54P; also called ICOSL IgV with N52H/N57Y/Q100R and H48R/554P

Experiments:
human CD28 [1] = molecular target: T2, human CD28 (human, UniProt P10747 19-220); test: flow cytometry, Expi293 cells with human CD28
T2 construct: whole, on cells
Source text: (§1) Expi293 cells transfected with cognate binding partners, human CD28, ICOS and CTLA4, were used as target cells in binding studies.

human ICOS [2] = molecular target: T1, human ICOS; test: flow cytometry, Expi293 cells with human ICOS
Experimental: Binding studies were carried out on transfected HEK293 cells generated to express the full-length mammalian (human) surface ligands, CD28, ICOS or CTLA-4, using a transient transfection system (Life Technologies, USA). As a control, binding to mock (non-transfected) cells also was assessed. For staining by flow cytometry, 200,000 cells of appropriate transient transfection or negative control (mock) were plated in 96 well round bottom plates, and, then incubated in staining buffer (PBS, phosphate buffered saline; 1% BSA, bovine serum albumin; and 0.1% sodium azide) for 20 minutes to block non-specific binding. Cells were resuspended in staining buffer containing 100 nM to 1 nM variant immunomodulatory protein in 50 μL. Mean Fluorescence Intensity (MFI) was calculated for each transfectant and negative parental line with Cell Quest Pro software (Becton Dickinson, USA) or a Hypercyt flow cytometer (Intellicyte, USA).
as §1

human CTLA-4 [3] = molecular target: T3, human CTLA-4 (human, UniProt P16410 36-223); test: flow cytometry, Expi293 cells with human CTLA-4
T3 construct: whole, on cells
Source text: as §1

human CD28 [4] = molecular target: T2, human CD28; test: flow cytometry, cells with human CD28; protein from CHO
human ICOS [5] = molecular target: T1, human ICOS; test: flow cytometry, cells with human ICOS; protein from CHO
human CTLA-4 [6] = molecular target: T3, human CTLA-4; test: flow cytometry, cells with human CTLA-4; protein from CHO

T3 sequence (P16410 36-223): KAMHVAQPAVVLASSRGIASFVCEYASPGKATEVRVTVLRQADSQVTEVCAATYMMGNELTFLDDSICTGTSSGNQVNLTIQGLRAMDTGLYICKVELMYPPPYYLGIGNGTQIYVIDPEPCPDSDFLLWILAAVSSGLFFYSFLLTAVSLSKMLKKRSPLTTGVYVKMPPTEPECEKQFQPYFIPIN

Row | Binder | MFI (ΔWT) (human CD28 [1]) [fold vs WT] | MFI (ΔWT) (human ICOS [2]) [fold vs WT] | MFI (ΔWT) (human CTLA-4 [3]) [fold vs WT] | MFI (ΔWT) (human CD28 [4]) [fold vs WT] | MFI (ΔWT) (human ICOS [5]) [fold vs WT] | MFI (ΔWT) (human CTLA-4 [6]) [fold vs WT] | MFI (human CD28 [4]) [MFI] | MFI (human ICOS [5]) [MFI] | MFI (human CTLA-4 [6]) [MFI]
1 | B1 | 10.9 | 1.3 | 20.5 |  |  |  |  |  | 
2 | B2 | 13.3 | 1.3 | 33.5 |  |  |  |  |  | 
3 | B3 |  |  |  | 46.6 | 1.1 | 42.3 |  |  | 
4 | B4 |  |  |  | 49 | 0.9 | 31.1 | 84600 | 91400 | 236000
5 | B5 |  |  |  | 62.4 | 1.3 | 40.7 |  |  | 
6 | B6 |  |  |  | 22.5 | 0.5 | 11 | 38900 | 54600 | 83700
7 | B7 |  |  |  | 34.3 | 1.4 | 17.5 | 59200 | 139000 | 133000
8 | B8 |  |  |  | 51.1 | 1.1 | 27.3 |  |  | 
9 | B9 |  |  |  | 50 | 1.1 | 28.5 | 86300 | 110000 | 216000
10 | B10 |  |  |  | 52.8 | 0.9 | 31.6 |  |  | 
11 | B11 |  |  |  | 43.6 | 1.4 | 42.4 |  |  | 
